In US9803012B2, “Compositions and methods for regulating SAS1R” (UNIVERSITY OF VIRGINIA PATENT FOUNDATION, priority 2005, dated 2017):

What was measured:
Assay type in all cases: cell-based
mouse eggs [1] = test: Binding of SLLP2 to mouse eggs
Protocol: To analyze the biologic activity of human SLLP2, it was determined whether it would bind to an egg, in this case, a mouse egg.
(§1) For comparison to the use of human sperm SLLP2, an experiment was performed to determine if purified mouse SLLP2 would bind to Zona intact mouse eggs. […] Competitive assays were then performed to determine whether the addition of recombinant mouse SLLP2 to a mixture of mouse sperm and mouse eggs could inhibit binding of sperm and eggs. Various amounts of recombinant mouse SLLP2 were added (5, 25, 50, 100, and 200 μg/ml) and the number of sperm bound per egg was determined.

[2] = test system: mouse sperm and mouse eggs; test: Competitive assay of sperm-egg binding with recombinant mouse SLLP2; conditions: 5, 25, 50, 100 and 200 μg/ml, relative to BSA (200 μg/ml) or PBS controls
Protocol: as §1

mouse sperm-egg fusion = test: Mouse sperm-egg fusion with recombinant mouse SLLP2; conditions: 100 or 200 μg/ml, relative to BSA and PBS controls
Protocol: Next, it was determined whether recombinant mouse SLLP2 could inhibit mouse sperm-egg fusion. In groups treated with recombinant mouse SLLP2 the number of sperm fused per egg was reduced to about 0.1 sperm fused per egg, at concentrations of 100 or 200 μg/ml recombinant mouse SLLP2, relative to BSA and PBS control treatments.

mouse eggs [3] = test: Fertilization of mouse eggs with mouse sperm with recombinant mouse SLLP2
Protocol: Recombinant mouse SLLP2 at concentrations of 25, 50, 100, and 200 μg/ml was incubated with sperm and egg, and compared to BSA and PBS controls as described above. It can be seen that fertilization occurred at a rate of about 75% in the BSA and PBS controls groups. […] Also provided are comparisons of human SLLP2 to other mammalian sequences, and well as a comparison indicating the conservation of SLLP2 ortholog in dogs.

- binding to Zona-free mouse eggs (mouse eggs [1]; mouse SLLP2): would bind to Zona-free mouse eggs
- binding to Zona intact mouse eggs (mouse eggs [1]; purified mouse SLLP2): does indeed bind to mouse eggs
B1: recombinant mouse SLLP2: purified recombinant mouse sperm lysozyme-like protein 2 (mature protein SEQ ID NO:16) (protein, listed as Mus musculus)
chain: KIYERCELAKKLEEAGLDGFKGYTVGDWLCVAHYESGFDTSFVDHNPDGSSEYGIFQLNSAWWCNNGITPTQNLCNIDCNDLLNRHILDDIICAKRVASSHKSMKAWDSWTQHCAGHDLSEWLKGCSVRLKTDSSYNNW
- number of sperm bound per egg [2]: able to reduce the amount of binding occurring between sperm and egg
- number of sperm fused per egg (mouse sperm-egg fusion): about 0.1 sperm fused per egg
- inhibition of fertilization (mouse eggs [3]; 200 μg/ml): nearly totally inhibiting fertilization
- inhibition of fertilization (mouse eggs [3]; 25, 50, 100 and 200 μg/ml, vs BSA and PBS controls): inhibited fertilization in a dose-dependent fashion
